Source: US20260234267A1 (KAIGENE, published 2026)

Biological target: Mac-1 (CD11b/CD18 integrin) on polymorphonuclear leukocytes (PMNs) of healthy human donors (human, UniProt P11215 17-1152; P05107 23-769)
Assay: flow cytometry, 30 µg/mL antibody on untreated versus PMA-treated human WBCs, % CD11b+ cells of live PMNs
Description: FIG. 3 is a chart showing the results of a flow cytometry analysis of activated polymorphonuclear leukocytes (“PMNs”) stained using 30 humanized anti-CD11b constructs prepared according to the present disclosure. The percentages of CD11b+ cells in live PMN were calculated by a gating based on a control, which is the cells stained with human IgG4 isotype, and are presented as means S.E.M. from four independent experiments. The white bars are CD11b+ cells in untreated white blood cells (WBCs), while the black bars are CD11b+ cells in PMA-treated WBCs.
The baseline CBRM1/5 antibody can distinguish between non-activated (resting) and activated form of Mac-1. In order to validate that humanized variants retained this characteristic, WBCs were isolated from 4 healthy human donors and activated in the absence or presence of phorbol 12-myristate-13-acetate (PMA). The cells were then stained with 30 μg/mL of each of the 30 humanized variants along with control antibody (human IgG4 isotype) and analyzed using flow cytometry. The percentages of CD11b+ cells in live PMNs were calculated by a gating based on a control, which is the cells stained with human IgG4 isotype, and are presented as means S.E.M. from four independent experiments. Variants containing VL5 lost a binding to Mac-1 in polymorphonuclear leukocytes (PMNs) regardless of the pairings with any VH variant (FIGS. 3-4). […] However, VH1/VL6 and all variants with VH2 preserved the characteristic of CBRM1/5 that can distinguish between non-activated (resting) and activated form of Mac-1, while the variants with VH4 or VH5 were likely to lose the specificity of the parental antibody, CBRM1/5 (FIGS. 3-4).

B1: VH2/VL6 humanized anti-CD11b antibody (antibody, human IgG4 S228P, kappa, V domains shown)
VH: QVQLVQSGAEVKKPGSSVKVSCKASGYAFINYLIEWVKQAPGQGLEWIGVINPGSGGTNYNEKFKGRATLTADKSTSTAYMELSSLRSEDTAVYFCARGDDYDDYTMDYWGQGTLVTVSS
VL: EIVLTQSPATLSLSPGERATLSCRASQSISNNLHWYQQKPGQAPRLLIKYASQSESGIPSRFSGSGSGTDFTLTISSLEPEDFGMYFCQQSNSWPLTFGQGTKLEIKR
notes: Lead candidate; IgG4 with S241P and L248E; also called VH2 with VL6
- binding result: binds

B2: VH1/VL6 humanized anti-CD11b antibody (antibody, human IgG4 S228P, kappa, V domains shown)
VH: QVQLQQSGAELKRPGSSVKVSCKASGYAFINYLIEWVKQAPGQGLEWIGVINPGSGGTNYNEKFKGKATLTADKSSSTAYMELSSLRSDDSAVYFCARGDDYDDYTMDYWGQGTSVTVSS
VL: EIVLTQSPATLSLSPGERATLSCRASQSISNNLHWYQQKPGQAPRLLIKYASQSESGIPSRFSGSGSGTDFTLTISSLEPEDFGMYFCQQSNSWPLTFGQGTKLEIKR
notes: Lead candidate; IgG4 with S241P and L248E; also called VH1 with VL6
- binding result: binds

B3: VH2/VL2 humanized anti-CD11b antibody (antibody, human IgG4 S228P, kappa)
heavy: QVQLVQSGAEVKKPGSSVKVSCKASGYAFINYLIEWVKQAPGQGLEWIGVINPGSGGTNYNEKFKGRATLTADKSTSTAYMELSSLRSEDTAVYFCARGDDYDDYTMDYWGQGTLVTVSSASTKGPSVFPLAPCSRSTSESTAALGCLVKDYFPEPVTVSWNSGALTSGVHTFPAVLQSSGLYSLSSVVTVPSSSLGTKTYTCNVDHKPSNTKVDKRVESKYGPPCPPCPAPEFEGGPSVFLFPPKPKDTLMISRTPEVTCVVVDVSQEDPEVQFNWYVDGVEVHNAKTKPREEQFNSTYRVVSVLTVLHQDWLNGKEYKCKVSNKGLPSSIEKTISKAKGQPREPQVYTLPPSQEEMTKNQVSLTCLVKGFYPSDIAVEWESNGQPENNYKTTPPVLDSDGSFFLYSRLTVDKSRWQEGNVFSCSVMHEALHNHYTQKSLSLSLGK
light: DIVLTQSPATLSLSPGERATLSCRASQSISNNLHWYQQKPGQAPRLLIKYASQSMSGIPSRFSGSGSGTDFTLTISSLEPEDFGMYFCQQSNSWPLTFGQGTKLEIKRTVAAPSVFIFPPSDEQLKSGTASVVCLLNNFYPREAKVQWKVDNALQSGNSQESVTEQDSKDSTYSLSSTLTLSKADYEKHKVYACEVTHQGLSSPVTKSFNRGEC
notes: Lead candidate; IgG4 with S241P and L248E; also called VH2 with VL2
- binding result: binds

B4: VH2/VL3 humanized anti-CD11b antibody (antibody, human IgG4 S228P, kappa)
heavy: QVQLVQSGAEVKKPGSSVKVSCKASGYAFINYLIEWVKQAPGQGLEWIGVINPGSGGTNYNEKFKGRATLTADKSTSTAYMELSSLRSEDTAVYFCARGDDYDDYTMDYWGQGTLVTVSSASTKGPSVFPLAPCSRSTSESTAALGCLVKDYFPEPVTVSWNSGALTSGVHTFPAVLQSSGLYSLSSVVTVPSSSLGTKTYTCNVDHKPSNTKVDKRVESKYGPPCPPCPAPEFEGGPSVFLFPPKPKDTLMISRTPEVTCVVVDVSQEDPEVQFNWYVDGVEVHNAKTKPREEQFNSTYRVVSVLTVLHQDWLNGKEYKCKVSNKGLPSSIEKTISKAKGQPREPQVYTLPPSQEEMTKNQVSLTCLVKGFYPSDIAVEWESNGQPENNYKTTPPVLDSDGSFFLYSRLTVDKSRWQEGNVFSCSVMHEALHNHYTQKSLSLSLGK
light: EIVLTQSPATLSLSPGERATLSCRASQSISNNLHWYQQKPGQAPRLLIKYASQSMSGIPSRFSGSGSGTDFTLTISSLEPEDFGMYFCQQSNSWPLTFGQGTKLEIKRTVAAPSVFIFPPSDEQLKSGTASVVCLLNNFYPREAKVQWKVDNALQSGNSQESVTEQDSKDSTYSLSSTLTLSKADYEKHKVYACEVTHQGLSSPVTKSFNRGEC
notes: Lead candidate; IgG4 with S241P and L248E; also called VH2 with VL3
- binding result: binds

B5: VH4/VL6 humanized anti-CD11b antibody (antibody, human IgG4 S228P, kappa, V domains shown)
VH: QVQLVQSGAEVKKPGSSVKVSCKASGYAFINYLIEWVKQAPGQGLEWIGVINPGSGGTNYNEKFKGRVTITADKSTSTAYMELSSLRSEDTAVYYCARGDDYDDYTMDYWGQGTLVTVSS
VL: EIVLTQSPATLSLSPGERATLSCRASQSISNNLHWYQQKPGQAPRLLIKYASQSESGIPSRFSGSGSGTDFTLTISSLEPEDFGMYFCQQSNSWPLTFGQGTKLEIKR
notes: Lead candidate; IgG4 with S241P and L248E; also called VH4 with VL6
- binding result: binds

B6: VH4/VL2 humanized anti-CD11b antibody (antibody, V domains shown)
VH: QVQLVQSGAEVKKPGSSVKVSCKASGYAFINYLIEWVKQAPGQGLEWIGVINPGSGGTNYNEKFKGRVTITADKSTSTAYMELSSLRSEDTAVYYCARGDDYDDYTMDYWGQGTLVTVSS
VL: DIVLTQSPATLSLSPGERATLSCRASQSISNNLHWYQQKPGQAPRLLIKYASQSMSGIPSRFSGSGSGTDFTLTISSLEPEDFGMYFCQQSNSWPLTFGQGTKLEIK
notes: Member of the group 'the variants with VH4 or VH5'; One of the 30 humanized variants
- binding result: binds

B7: VH4/VL3 humanized anti-CD11b antibody (antibody, V domains shown)
VH: QVQLVQSGAEVKKPGSSVKVSCKASGYAFINYLIEWVKQAPGQGLEWIGVINPGSGGTNYNEKFKGRVTITADKSTSTAYMELSSLRSEDTAVYYCARGDDYDDYTMDYWGQGTLVTVSS
VL: EIVLTQSPATLSLSPGERATLSCRASQSISNNLHWYQQKPGQAPRLLIKYASQSMSGIPSRFSGSGSGTDFTLTISSLEPEDFGMYFCQQSNSWPLTFGQGTKLEIK
notes: as for B6
- binding result: binds
